From patent US20230287046A1, “MOLECULES TARGETING PROTEINS” (AELIN THERAPEUTICS, priority 2020, published 2023) come the findings set out here.

Substitutions are numbered along the chain they refer to.

The target of assay [1] is T1, ITK R29C (Homo sapiens, UniProt Q08881, R29C).
T1 construct: made in house; host or cells: cell-free: PURExpress In Vitro Protein Synthesis Kit (New England Biolabs)
T1 sequence (Q08881 1-620 R29C): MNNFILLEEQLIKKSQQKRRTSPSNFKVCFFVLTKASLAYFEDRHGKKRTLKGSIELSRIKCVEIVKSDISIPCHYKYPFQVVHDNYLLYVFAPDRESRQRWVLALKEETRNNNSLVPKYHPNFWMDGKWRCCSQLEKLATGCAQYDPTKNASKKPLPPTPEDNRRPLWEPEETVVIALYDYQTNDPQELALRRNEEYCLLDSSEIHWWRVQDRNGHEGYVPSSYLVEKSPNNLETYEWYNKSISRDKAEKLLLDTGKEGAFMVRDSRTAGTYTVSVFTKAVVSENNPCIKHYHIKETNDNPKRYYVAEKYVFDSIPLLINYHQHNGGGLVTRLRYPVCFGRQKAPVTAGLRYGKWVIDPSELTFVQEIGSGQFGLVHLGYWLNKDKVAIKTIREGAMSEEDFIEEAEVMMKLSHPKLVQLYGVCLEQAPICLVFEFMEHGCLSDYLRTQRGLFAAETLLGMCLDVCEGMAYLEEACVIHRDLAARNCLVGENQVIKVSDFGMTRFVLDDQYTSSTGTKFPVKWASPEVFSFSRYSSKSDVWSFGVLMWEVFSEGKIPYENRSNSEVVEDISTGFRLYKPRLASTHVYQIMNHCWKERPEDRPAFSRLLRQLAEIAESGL
The experiment in a line: ITK in vitro translation assay with streptavidin pull-down, R29C. As to conditions: 10 μM biotinylated pept-in, fraction binding normalized over vehicle. As to the method:
(§1) An in vitro translation approach was used to assess ITK mutant selective binding over wild-type for the 22-006-N001 and 22-018-N001 pept-ins. In particular, in vitro translation assays were performed using the PURExpress® In Vitro Protein Synthesis Kit (New England Biolabs) according to the manufacturer's instructions. Briefly, linear DNA fragments containing T7 promotor and terminator sequences flanking the […] (SEQ ID NO: 68)-tagged ITK coding sequence were generated using PCR and purified using the MinElute PCR Purification Kit (Qiagen). 250 ng of linear DNA was subsequently used for the in vitro translation reaction, which was performed for 2 hrs at 37° C. with shaking (1000 rpm). Indicated biotinylated pept-ins were mixed in the translation reactions from a 5 mM stock solution in 6M Urea to a final concentration of 10 μM. Upon completion of the translation reaction, biotinylated pept-ins were captured from the reaction mix using Streptavidin coated beads (Pierce) during 90 min at room temperature. Beads were next washed with TBS containing 0.1% Tween 20 and bound proteins were finally boiled off in 1×SDS loading dye (Bio-Rad) in TBS buffer. Proteins were resolved using Any kD 15-well Mini-PROTEAN gels (Bio-Rad) during SDS-PAGE and probed for ITK using a rabbit anti-[…] (SEQ ID NO: 68) tag antibody (Cell Signaling 14793) after Western blotting.

Assay [2] deals with T2, ITK R29L (Homo sapiens, UniProt Q08881, R29L).
T2 construct: made in house; host or cells: cell-free: PURExpress In Vitro Protein Synthesis Kit (New England Biolabs)
T2 sequence (Q08881 1-620 R29L): T1 sequence (Q08881 1-620 R29C) with C29L
The experiment in a line: ITK in vitro translation assay with streptavidin pull-down, R29L. The note with it: 10 μM biotinylated pept-in, fraction binding normalized over vehicle. The method, then: as §1

On to “AKVCFFVKGSKVCFFVK (ITK pept-in) [22-006-N001]”, for which, in assay [1], the “binding to ITK R29C over wild-type” value is reported as “Selective binding to the mutant over wild-type”.

Turning to “AKVLFFVKGSKVLFFVK (ITK pept-in) [22-018-N001]”, the “binding to ITK R29L over wild-type” value in assay [2] is on record as “Selective binding to the mutant over wild-type”.
